From the supplement of paper PMC5998384

Tests used:
HeLa Kyoto [1] = test: solubility in G1/S (NP-40 vs SDS abundance) (log2 ratio); higher = more soluble; conditions: cell cycle stage: G1/S
HeLa Kyoto [2] = test: solubility change mitosis vs G1/S (difference of NP-40 vs SDS log2 ratios) (log2 ratio difference); higher = more soluble in mitosis
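Throughout, for solubility change mitosis vs G1/S (difference of NP-40 vs SDS log2 ratios): synchronized HeLa Kyoto cells (double thymidine block for G1/S, nocodazole release for mitosis), protein amounts in NP-40 versus SDS lysates quantified by mass spectrometry, three biological replicates.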
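Throughout, for solubility in G1/S (NP-40 vs SDS abundance): HeLa Kyoto cells arrested at G1/S by double thymidine block, proteins quantified by TMT10plex mass spectrometry in mild NP-40 versus SDS extracts, three biological replicates.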

Substance | solubility in G1/S (log2) (HeLa Kyoto [1]) | solubility change mitosis (log2) (HeLa Kyoto [2])
MVLKAFFPTCCVSTDSGLLVGRWVPEQSSAVVLAVLHFPFIPIQVKQLLAQVRQASQVGVAVLGTWCHCRQEPEESLGRFLESLGAVFPHEPWLRLCRERGGTFWSCEATHRQAPTAPGAPGEDQVMLIFYDQRQVLLSQLHLPTVLPDRQAGATTASTGGLAAVFDTVARSEVLFRSDRFDEGPVRLSHWQSEGVEASILAELARRASGPICLLLASLLSLVSAVSACRVFKLWPLSFLGSKLSTCEQLRHRLEHLTLIFSTRKAENPAQLMRKANTVASVLLDVALGLMLLSWLHGRSRIGHLADALVPVADHVAEELQHLLQWLMGAPAGLKMNRALDQVLGRFFLYHIHLWISYIHLMSPFVEHILWHVGLSACLGLTVALSLLSDIIALLTFHIYCFYVYGARLYCLKIHGLSSLWRLFRGKKWNVLRQRVDSCSYDLDQLFIGTLLFTILLFLLPTTALYYLVFTLLRLLVVAVQGLIHLLVDLINSLPLYSLGLRLCRPYRLADKPTALQPRGAHLPPPQLWLPPQALLGRPVPQAVPWGAHLPLEAERGQAGLRELLARLAPPHGHSQPSALPGWHQLSWRMSCALWTLLCAPEHGRPCYHTLGLEVIGSEQMWGWPARLAALHHWHCLPWDPLPTCCGHHGGEHSNPRCPEHCPMPTLCTQVQRVRPPQQPQVEGWSPWGLPSGSALAVGVEGPCQDEPPSPRHPLAPSAEQHPASGGLKQSLTPVPSGPGPSLPEPHGVYLRMFPGEVAL [PIGQ] | -0.0206 | -0.119
ALAS1 | 0.132 | 0.00951
MAAPCLLRQGRAGALKTMLQEAQVFRGLASTVSLSAESGKSEKGQPQNSKKQSPPKKPAPVPAEPFDNTTYKNLQHHDYSTYTFLDLNLELSKFRMPQPSSGRESPRH [NDUFV3] | 0.224 | -0.0477
MAQKENSYPWPYGRQTAPSGLSTLPQRVLRKEPVTPSALVLMSRSNVQPTAAPGQKVMENSSGTPDILTRHFTIDDFEIGRPLGKGKFGNVYLAREKKSHFIVALKVLFKSQIEKEGVEHQLRREIEIQAHLHHPNILRLYNYFYDRRRIYLILEYAPRGELYKELQKSCTFDEQRTATIMEELADALMYCHGKKVIHRDIKPENLLLGLKGELKIADFGWSVHAPSLRRKTMCGTLDYLPPEMIEGRMHNEKVDLWCIGVLCYELLVGNPPFESASHNETYRRIVKVDLKFPASVPMGAQDLISKLLRHNPSERLPLAQVSAHPWVRANSRRVLPPSALQSVA [AURKB] | -1.2 | -0.11
MPLLVEGRRVRLPQSAGDLVRAHPPLEERARLLRGQSVQQVGPQGLLYVQQRELAVTSPKDGSISILGSDDATTCHIVVLRHTGNGATCLTHCDGTDTKAEVPLIMNSIKSFSDHAQCGRLEVHLVGGFSDDRQLSQKLTHQLLSEFDRQEDDIHLVTLCVTELNDREENENHFPVIYGIAVNIKTAEIYRASFQDRGPEEQLRAARTLAGGPMISIYDAETEQLRIGPYSWTPFPHVDFWLHQDDKQILENLSTSPLAEPPHFVEHIRSTLMFLKKHPSPAHTLFSGNKALLYKKNEDGLWEKISSPGS [NTAN1] | -0.142 | 0.176
MGVSKLDILYRRLLLTKLFIRGWGRPEDLKRLFEFRKMIGNRERCQNLVSSDYPVHIDKIEEQSDCKILDGHFVSPMAHYVPDIMPIESVIARFQFIVPKEWNSKYRPVCIHLAGTGDHHYWRRRTLMARPMIKEARMASLLLENPYYGCRKPKDQVRSSLKNVSDLFVMGGALVLESAALLHWLEREGYGPLGMTGISMGGHMASLAVSNWPKPMPLIPCLSWSTASGVFTTTDSFKMGQEFVKHFTSSADKLTNLNLVSRTLNLDISNQVVSQKPADCHNSSKTSVSATSEGLLLQDTSKMKRFNQTLSTNKSGYTSRNPQSYHLLSKEQSRNSLRKESLIFMKGVMDECTHVANFSVPVDPSLIIVVQAKEDAYIPRTGVRSLQEIWPGCEIRYLEGGHISAYLFKQGLFR [ABHD18] | -0.33 | -0.181
MVRKLKFHEQKLLKQVDFLNWEVTDHNLHELRVLRRYRLQRREDYTRYNQLSRAVRELARRLRDLPERDQFRVRASAALLDKLYALGLVPTRGSLELCDFVTASSFCRRRLPTVLLKLRMAQHLQAAVAFVEQGHVRVGPDVVTDPAFLVTRSMEDFVTWVDSSKIKRHVLEYNEERDDFDLEA [IMP3] | -2.11 | 1.1
MGDPGSEIIESVPPAGPEASESTTDENEDDIQFVSEGPLRPVLEYIDLVSSDDEEPSTSYTDENIKRKDHIDYQKDKVALTLARLARHVEVEKQQKEEKNRAFREKIDFQHAHGLQELEFIRGHSDTEAARLCVDQWLKMPGLKTGTINCGTKSSFRRGGHTWVSGKPILCPIMHCNKEFDNGHLLLGHLKRFDHSPCDPTITLHGPFFSSFACVVCYKKFVTQQQYRDHLFDKEATDDGHNNNLLPQIIQCFACPNCFLLFSRKEECSKHMSGKNHFHQSFKLGDNKGIAHPISFPSFAKKLLISLCKDVPFQVKCVACHKTLRSHMELTAHFRVHCRNAGPVAVAEKSITQVAEKFILRGYCPDCNQVFVDETSTQNHKQNSGHKVRVINSVEESVLLYCHSSEGNKDPSSDLHLLLDQSKFSSLKRTMSIKESSSLECIAIPKKKMNLKDKSHEGVACVQKEKSVVKTWFCECNQRFPSEDAVEKHVFSANTMGYKCVVCGKVCDDSGVIRLHMSRIHGGAHLNNFLFWCRTCKKELTRKDTIMAHVTEFHNGHRYFYEMDEVEGETLPSSSTTLDNLTANKPSSAITVIDHSPANSSPRGKWQCRICEDMFDSQEYVKQHCMSLASHKFHRYSCAHCRKPFHKIETLYRHCQDEHDNEIKIKYFCGLCDLIFNVEEAFLSHYEEHHSIDYVFVSEKTETSIKTEDDFPVIETSNQLTCGCRESYICKVNRKEDYSRCLQIMLDKGKLWFRCSLCSATAQNLTDMNTHIHQVHKEKSDEEEQQYVIKCGTCTKAFHDPESAQQHFHRKHCFLQKPSVAHFGSEKSNLYKFTASASHTERKLKQAINYSKSLDMEKGVENDLSYQNIEEEIVELPDLDYLRTMTHIVFVDFDNWSNFFGHLPGHLNQGTFIWGFQGGNTNWKPPLNCKIYNYLNRIGCFFLHPRCSKRKDAADFAICMHAGRLDEQLPKQIPFTILSGDQGFLELENQFKKTQRPAHILNPHHLEGDMMCALLNSISDTTKECDSDDNMGAKNTSIGEEFISTEDVELEEAIRRSLEEM [ZNF451] | -0.657 | -0.197
ATAD5 | -1.01 | 0.557
MHARGPHGQLSPALPLASSVLMLLMSTLWLVGAGPGLVLAPELLLDPWQVHRLLTHALGHTALPGLLLSLLLLPTVGWQQECHLGTLRFLHASALLALASGLLAVLLAGLGLSSAAGSCGYMPVHLAMLAGEGHRPRRPRGALPPWLSPWLLLALTPLLSSEPPFLQLLCGLLAGLAYAAGAFRWLEPSERRLQVLQEGVLCRTLAGCWPLRLLATPGSLAELPVTHPAGVRPPIPGPPYVASPDLWSHWEDSALPPPSLRPVQPTWEGSSEAGLDWAGASFSPGTPMWAALDEQMLQEGIQASLLDGPAQEPQSAPWLSKSSVSSLRLQQLERMGFPTEQAVVALAATGRVEGAVSLLVGGQVGTETLVTHGKGGPAHSEGPGPP [RHBDD3] | -0.0767 | 0.0168
MNQFGPSALINLSNFSSIKPEPASTPPQGSMANSTAVVKIPGTPGAGGRLSPENNQVLTKKKLQDLVREVDPNEQLDEDVEEMLLQIADDFIESVVTAACQLARHRKSSTLEVKDVQLHLERQWNMWIPGFGSEEIRPYKKACTTEAHKQRMALIRKTTKK [TAF12] | -0.0469 | 0.151
MNGPADGEVDYKKKYRNLKRKLKFLIYEHECFQEELRKAQRKLLKVSRDKSFLLDRLLQYENVDEDSSDSDATASSDNSETEGTPKLSDTPAPKRKRSPPLGGAPSPSSLSLPPSTGFPLQASGVPSPYLSSLASSRYPPFPSDYLALQLPEPSPLRPKREKRPRLPRKLKMAVGPPDCPVGGPLTFPGRGSGAGVGTTLTPLPPPKMPPPTILSTVPRQMFSDAGSGDDALDGDDDLVIDIPE [INO80E] | 0.135 | 0.288
MSKKKGLSAEEKRTRMMEIFSETKDVFQLKDLEKIAPKEKGITAMSVKEVLQSLVDDGMVDCERIGTSNYYWAFPSKALHARKHKLEVLESQLSEGSQKHASLQKSIEKAKIGRCETEERTRLAKELSSLRDQREQLKAEVEKYKDCDPQVVEEIRQANKVAKEAANRWTDNIFAIKSWAKRKFGFEENKIDRTFGIPEDFDYID [MND1] | 0.61 | -0.05
